This note sets out measurements from article PMC8326427.

The target of the data set is T1, rDHX36 (G4R1/RHAU) (UniProt Q9H2U1 1-1008).
T1 sequence: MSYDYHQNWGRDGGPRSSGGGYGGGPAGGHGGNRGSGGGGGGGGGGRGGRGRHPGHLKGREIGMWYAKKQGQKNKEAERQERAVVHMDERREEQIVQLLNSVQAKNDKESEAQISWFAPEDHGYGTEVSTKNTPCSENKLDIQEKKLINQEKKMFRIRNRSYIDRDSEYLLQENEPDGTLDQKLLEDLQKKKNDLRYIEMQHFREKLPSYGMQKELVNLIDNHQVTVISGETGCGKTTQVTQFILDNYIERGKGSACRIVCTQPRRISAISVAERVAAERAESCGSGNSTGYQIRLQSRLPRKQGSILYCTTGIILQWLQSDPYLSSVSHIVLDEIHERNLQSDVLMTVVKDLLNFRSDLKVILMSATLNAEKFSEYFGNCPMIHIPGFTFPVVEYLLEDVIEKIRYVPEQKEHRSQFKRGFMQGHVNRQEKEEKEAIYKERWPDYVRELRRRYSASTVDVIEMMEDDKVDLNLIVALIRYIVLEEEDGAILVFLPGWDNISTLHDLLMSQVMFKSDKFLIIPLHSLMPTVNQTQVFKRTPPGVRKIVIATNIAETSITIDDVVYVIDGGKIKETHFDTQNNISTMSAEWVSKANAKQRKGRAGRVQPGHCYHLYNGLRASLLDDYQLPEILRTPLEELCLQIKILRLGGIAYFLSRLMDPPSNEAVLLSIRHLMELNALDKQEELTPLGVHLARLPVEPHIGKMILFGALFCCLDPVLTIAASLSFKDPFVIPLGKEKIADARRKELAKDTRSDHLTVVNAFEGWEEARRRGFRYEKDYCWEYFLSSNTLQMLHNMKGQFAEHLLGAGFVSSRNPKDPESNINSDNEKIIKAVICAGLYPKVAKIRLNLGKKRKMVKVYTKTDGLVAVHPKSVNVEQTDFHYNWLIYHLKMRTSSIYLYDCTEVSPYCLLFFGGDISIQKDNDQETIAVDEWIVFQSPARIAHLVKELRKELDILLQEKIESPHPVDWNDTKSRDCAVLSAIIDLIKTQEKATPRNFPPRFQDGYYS
The data set can be described thus: EMSA. For orientation: Mobility shift assays separate free from complexed probe on a gel.

Consider GGGGCCGGGGCCGGGGCCGGGGCCGGGGCCGTTAGAATTTTT (structured_DNA) [(G4C2)5-DNA, annealed with KCl (G4)], for which the binding result is listed as “binds”.
